The supplement of paper PMC10065799, “High-throughput profiling of sequence recognition by tyrosine kinases and SH2 domains using bacterial peptide display” (eLife, 2023)

Key:
AncSZ = experiment: phosphorylation enrichment, bacterial display (enrichment ratio); higher = better substrate or ligand; peptides without Tyr show the background
EPHB1 = EPHB1 (UniProt P54762); experiment: as above
EPHB2 = EPHB2 (UniProt P29323); experiment: as above
FGFR1 = FGFR1 (UniProt P11362); experiment: as above
FGFR3 = FGFR3 (UniProt P22607); experiment: as above
FGFR3, sequence (P22607 whole entry, looked up): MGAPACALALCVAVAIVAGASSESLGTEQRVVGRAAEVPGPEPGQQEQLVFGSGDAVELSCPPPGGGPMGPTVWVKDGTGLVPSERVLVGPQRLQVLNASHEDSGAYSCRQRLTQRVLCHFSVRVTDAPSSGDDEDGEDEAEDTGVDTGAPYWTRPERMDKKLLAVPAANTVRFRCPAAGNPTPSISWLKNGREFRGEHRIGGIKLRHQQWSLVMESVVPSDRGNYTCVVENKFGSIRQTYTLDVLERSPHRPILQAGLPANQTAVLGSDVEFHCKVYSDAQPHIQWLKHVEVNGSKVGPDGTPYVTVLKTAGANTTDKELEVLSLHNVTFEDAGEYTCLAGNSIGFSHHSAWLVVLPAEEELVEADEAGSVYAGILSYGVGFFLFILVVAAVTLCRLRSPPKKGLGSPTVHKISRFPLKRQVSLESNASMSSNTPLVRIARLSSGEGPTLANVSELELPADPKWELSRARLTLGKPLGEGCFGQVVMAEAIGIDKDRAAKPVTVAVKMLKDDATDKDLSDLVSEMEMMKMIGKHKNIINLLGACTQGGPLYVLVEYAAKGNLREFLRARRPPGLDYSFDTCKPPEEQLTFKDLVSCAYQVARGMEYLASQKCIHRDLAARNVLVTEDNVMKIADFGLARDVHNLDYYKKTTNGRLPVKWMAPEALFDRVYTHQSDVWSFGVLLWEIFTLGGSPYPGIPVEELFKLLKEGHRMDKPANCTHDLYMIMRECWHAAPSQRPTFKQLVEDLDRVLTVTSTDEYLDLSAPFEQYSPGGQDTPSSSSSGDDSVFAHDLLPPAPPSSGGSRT

Fer (mouse) = experiment: as above
Fes = Fes (UniProt P07332); experiment: as above
Fes, sequence (P07332 whole entry, looked up): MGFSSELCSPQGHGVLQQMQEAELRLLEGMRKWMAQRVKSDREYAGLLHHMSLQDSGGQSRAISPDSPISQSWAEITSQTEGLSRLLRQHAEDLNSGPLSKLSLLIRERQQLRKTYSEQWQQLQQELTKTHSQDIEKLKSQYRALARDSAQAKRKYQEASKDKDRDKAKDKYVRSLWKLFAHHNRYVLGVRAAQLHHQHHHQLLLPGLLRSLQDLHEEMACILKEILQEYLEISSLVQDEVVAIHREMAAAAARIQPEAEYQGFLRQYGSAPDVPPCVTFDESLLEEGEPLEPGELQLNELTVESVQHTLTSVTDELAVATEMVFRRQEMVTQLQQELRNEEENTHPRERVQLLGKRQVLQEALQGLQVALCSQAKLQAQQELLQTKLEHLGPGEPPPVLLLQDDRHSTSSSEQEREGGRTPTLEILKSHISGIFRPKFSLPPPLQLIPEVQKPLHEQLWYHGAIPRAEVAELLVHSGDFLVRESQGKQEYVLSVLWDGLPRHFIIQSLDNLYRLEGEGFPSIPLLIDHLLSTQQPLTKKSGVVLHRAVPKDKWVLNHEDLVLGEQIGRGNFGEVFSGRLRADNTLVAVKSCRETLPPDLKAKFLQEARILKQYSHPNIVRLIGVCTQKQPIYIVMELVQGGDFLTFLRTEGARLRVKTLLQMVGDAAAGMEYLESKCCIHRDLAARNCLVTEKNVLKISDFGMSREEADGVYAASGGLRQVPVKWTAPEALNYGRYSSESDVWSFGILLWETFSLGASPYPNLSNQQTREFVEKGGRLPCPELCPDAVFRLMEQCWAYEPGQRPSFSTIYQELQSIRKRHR

Fyn = Fyn (UniProt P06241); experiment: as above
Hck = Hck (UniProt P08631); experiment: as above
Hck, sequence (P08631 whole entry, looked up): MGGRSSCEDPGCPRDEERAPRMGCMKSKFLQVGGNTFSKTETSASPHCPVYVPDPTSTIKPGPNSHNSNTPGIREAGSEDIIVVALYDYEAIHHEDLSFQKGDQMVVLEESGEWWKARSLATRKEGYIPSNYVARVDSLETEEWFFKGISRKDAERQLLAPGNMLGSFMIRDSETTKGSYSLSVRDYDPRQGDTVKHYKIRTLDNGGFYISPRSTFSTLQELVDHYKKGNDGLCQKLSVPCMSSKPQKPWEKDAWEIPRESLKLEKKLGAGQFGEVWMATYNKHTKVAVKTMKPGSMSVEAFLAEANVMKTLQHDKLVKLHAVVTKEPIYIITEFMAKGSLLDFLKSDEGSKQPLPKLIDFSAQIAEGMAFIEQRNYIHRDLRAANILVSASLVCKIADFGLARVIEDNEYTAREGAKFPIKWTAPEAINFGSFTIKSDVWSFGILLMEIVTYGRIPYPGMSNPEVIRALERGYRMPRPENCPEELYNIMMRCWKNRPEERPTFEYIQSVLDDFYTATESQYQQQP

Jak2 = Jak2 (UniProt O60674); experiment: as above
MERTK = MERTK (UniProt Q12866); experiment: as above
c-Abl (mouse) = experiment: as above
c-Src = experiment: as above
Grb2 SH2 = Grb2 SH2 (UniProt P62993); experiment: SH2 binding enrichment of the phosphorylated peptide, bacterial display (enrichment ratio); higher = better substrate or ligand; peptides without Tyr show the background
SHP2-C SH2 = experiment: as above
c-Src SH2 = experiment: as above
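Wherever SH2 binding enrichment of the phosphorylated peptide, bacterial display is given: peptide library displayed on the E. coli surface as eCPX fusions, selected cells deep-sequenced, score is each peptide's frequency after selection divided by its frequency in the input.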
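Wherever phosphorylation enrichment, bacterial display is given: 11-residue human phosphosite peptides and single-mutation variants displayed on the E. coli surface, counted by deep sequencing, each peptide's frequency after selection divided by its frequency in the unselected input library; frequency after pTyr selection over input frequency; kinase dosed for 20-30% of maximal phosphorylation in three min.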

EPHB2, sequence (P29323 whole entry, looked up): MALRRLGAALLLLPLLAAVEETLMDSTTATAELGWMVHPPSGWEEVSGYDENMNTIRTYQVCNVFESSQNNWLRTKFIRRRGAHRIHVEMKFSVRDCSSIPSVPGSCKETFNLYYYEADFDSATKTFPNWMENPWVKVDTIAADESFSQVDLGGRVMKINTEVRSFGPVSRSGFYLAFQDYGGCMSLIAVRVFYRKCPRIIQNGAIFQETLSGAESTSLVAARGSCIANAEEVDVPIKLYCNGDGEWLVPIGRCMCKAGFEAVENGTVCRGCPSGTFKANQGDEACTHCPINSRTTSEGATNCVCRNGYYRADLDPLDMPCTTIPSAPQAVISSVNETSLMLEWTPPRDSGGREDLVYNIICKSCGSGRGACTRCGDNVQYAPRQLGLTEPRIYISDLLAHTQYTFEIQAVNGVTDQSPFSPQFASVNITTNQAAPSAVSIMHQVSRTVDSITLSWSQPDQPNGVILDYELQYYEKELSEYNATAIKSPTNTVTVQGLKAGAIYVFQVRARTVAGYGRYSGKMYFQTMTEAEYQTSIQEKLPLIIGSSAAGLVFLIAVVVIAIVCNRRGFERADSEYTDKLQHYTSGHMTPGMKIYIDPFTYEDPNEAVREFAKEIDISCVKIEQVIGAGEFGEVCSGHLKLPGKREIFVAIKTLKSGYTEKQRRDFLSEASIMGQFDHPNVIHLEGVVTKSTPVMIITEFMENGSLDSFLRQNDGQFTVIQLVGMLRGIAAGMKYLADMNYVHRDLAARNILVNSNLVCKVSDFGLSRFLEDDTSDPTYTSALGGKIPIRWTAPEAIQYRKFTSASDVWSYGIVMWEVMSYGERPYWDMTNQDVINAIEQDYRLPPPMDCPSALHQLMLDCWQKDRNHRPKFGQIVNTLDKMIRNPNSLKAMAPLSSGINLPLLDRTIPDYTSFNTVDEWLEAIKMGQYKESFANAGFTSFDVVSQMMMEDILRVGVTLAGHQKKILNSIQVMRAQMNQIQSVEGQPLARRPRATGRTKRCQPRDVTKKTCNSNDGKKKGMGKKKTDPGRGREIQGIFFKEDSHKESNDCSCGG
EPHB1, sequence (P54762 whole entry, looked up): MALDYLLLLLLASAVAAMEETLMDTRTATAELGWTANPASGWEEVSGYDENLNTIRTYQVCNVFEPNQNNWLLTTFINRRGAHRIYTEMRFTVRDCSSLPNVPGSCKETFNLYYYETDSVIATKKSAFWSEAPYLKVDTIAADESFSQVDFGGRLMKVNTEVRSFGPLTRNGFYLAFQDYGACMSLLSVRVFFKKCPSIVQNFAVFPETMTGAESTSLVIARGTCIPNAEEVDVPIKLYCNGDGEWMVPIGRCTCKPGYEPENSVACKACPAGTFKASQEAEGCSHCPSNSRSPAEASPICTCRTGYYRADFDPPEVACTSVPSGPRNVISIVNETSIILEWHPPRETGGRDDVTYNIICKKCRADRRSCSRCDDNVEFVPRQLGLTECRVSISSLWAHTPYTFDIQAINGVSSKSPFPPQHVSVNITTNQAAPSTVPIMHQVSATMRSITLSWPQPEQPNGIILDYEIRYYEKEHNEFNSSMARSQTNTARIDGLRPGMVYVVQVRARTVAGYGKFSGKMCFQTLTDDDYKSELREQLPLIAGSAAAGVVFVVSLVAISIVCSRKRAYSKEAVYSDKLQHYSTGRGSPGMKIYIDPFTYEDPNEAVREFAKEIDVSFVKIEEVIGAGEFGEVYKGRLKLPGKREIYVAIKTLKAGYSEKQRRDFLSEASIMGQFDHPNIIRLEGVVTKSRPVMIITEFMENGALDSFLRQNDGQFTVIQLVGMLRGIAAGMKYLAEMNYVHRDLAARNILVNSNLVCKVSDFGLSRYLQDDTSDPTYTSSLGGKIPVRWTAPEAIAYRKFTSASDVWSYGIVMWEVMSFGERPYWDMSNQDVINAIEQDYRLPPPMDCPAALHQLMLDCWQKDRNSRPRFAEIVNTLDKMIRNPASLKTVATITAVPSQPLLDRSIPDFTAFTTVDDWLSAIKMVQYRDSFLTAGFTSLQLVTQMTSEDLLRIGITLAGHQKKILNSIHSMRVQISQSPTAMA
FGFR1, sequence (P11362 whole entry, looked up): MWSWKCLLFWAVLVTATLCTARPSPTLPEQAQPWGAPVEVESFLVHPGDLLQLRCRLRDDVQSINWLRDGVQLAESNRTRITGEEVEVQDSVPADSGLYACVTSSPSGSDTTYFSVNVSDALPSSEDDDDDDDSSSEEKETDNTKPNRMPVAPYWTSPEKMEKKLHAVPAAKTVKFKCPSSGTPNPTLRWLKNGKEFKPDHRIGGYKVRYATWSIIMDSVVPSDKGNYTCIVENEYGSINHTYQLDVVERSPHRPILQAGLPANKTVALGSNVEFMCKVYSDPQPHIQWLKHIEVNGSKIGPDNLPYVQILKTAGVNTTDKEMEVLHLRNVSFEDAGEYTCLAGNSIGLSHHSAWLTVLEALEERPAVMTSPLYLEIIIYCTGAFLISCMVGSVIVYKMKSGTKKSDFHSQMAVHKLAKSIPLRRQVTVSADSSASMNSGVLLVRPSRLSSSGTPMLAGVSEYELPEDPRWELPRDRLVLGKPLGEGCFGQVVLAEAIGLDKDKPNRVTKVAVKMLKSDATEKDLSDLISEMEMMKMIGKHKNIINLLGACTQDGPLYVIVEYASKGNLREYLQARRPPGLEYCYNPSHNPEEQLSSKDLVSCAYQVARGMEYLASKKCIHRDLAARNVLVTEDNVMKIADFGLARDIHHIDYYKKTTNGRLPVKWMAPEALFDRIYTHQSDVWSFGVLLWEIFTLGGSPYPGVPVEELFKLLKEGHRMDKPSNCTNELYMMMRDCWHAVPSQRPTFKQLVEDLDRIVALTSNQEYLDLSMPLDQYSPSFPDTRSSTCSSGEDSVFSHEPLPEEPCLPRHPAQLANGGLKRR

Sequence | phosphorylation enrichment (AncSZ) | phosphorylation enrichment (EPHB1) | phosphorylation enrichment (EPHB2) | phosphorylation enrichment (FGFR1) | phosphorylation enrichment (FGFR3) | phosphorylation enrichment (Fer (mouse)) | phosphorylation enrichment (Fes) | phosphorylation enrichment (Fyn) | phosphorylation enrichment (Hck) | phosphorylation enrichment (Jak2) | phosphorylation enrichment (MERTK) | phosphorylation enrichment (c-Abl (mouse)) | phosphorylation enrichment (c-Src) | SH2 binding enrichment (Grb2 SH2) | SH2 binding enrichment (SHP2-C SH2) | SH2 binding enrichment (c-Src SH2)
GPKSTYISSAA [GOLGA5_Y62] | 0.731 | 0.331 | 0.506 | 0.414 | 0.51 | 0.403 | 0.7 | 0.467 | 0.492 | 0.638 | 0.565 | 0.488 | 0.508 | 0.715 | 0.52 | 0.403
GQAPGYSYTAA [CYCS_Y47] | 0.601 | 0.483 | 0.5 | 0.43 | 0.481 | 0.433 | 0.665 | 0.471 | 0.502 | 0.615 | 0.438 | 0.56 | 0.416 | 0.873 | 0.659 | 0.791
GQDLFYEDEDL [PACS1_Y303] | 1.28 | 0.922 | 0.628 | 0.626 | 1.24 | 1.79 | 1.39 | 0.688 | 0.737 | 1.43 | 0.746 | 0.839 | 0.598 | 0.711 | 0.636 | 0.588
GREEFYVHFVG [KAT8_Y90_YF] | 1.23 | 0.661 | 0.602 | 0.582 | 0.841 | 0.513 | 1.52 | 0.458 | 0.581 | 1.37 | 0.559 | 0.896 | 0.693 | 0.867 | 0.621 | 0.472
GRLFAYPDTHR [CAT_Y358] | 0.641 | 0.49 | 0.434 | 0.44 | 0.538 | 0.476 | 0.756 | 0.421 | 0.397 | 0.605 | 0.344 | 0.597 | 0.356 | 0.84 | 0.909 | 0.508
GTFEDYVEGLR [MYL6_Y89_YF] | 1.08 | 0.534 | 0.534 | 0.545 | 0.685 | 0.454 | 1.11 | 0.427 | 0.508 | 0.971 | 0.461 | 0.688 | 0.416 | 0.9 | 0.553 | 0.5
GTTIHYNFMCN [TP53_Y234_C229G_YF] | 1.12 | 0.743 | 0.718 | 0.544 | 0.822 | 0.63 | 1.32 | 0.477 | 0.532 | 1.13 | 0.465 | 0.888 | 0.467 | 0.715 | 0.613 | 0.603
GTYEDYVEGLR [MYL6_Y89] | 1.31 | 1.31 | 1.19 | 0.617 | 0.743 | 0.579 | 1.22 | 1.14 | 0.726 | 0.885 | 0.513 | 0.748 | 1.43 | 0.777 | 0.645 | 0.766
GVRLYYRVRES [RB1_Y454_M457R] | 1.54 | 0.435 | 0.447 | 0.662 | 0.781 | 0.483 | 1.08 | 0.435 | 0.408 | 0.964 | 0.403 | 0.39 | 0.285 | 0.769 | 0.872 | 0.393
GVRYTYTIDGS [DCX_Y105_I104T] | 0.986 | 0.562 | 0.623 | 0.521 | 0.758 | 0.429 | 1.08 | 0.543 | 0.483 | 0.981 | 0.447 | 0.634 | 0.56 | 1.07 | 5.17 | 1.43
GVTLLCYGRYN [ADGRD1_Y85_Y85C] | 1.31 | 0.707 | 0.682 | 0.435 | 0.908 | 0.563 | 1.55 | 0.708 | 0.508 | 1.23 | 0.397 | 0.975 | 0.97 | 0.753 | 0.806 | 0.486
GYCSWYRGWAP [TIMP3_Y195] | 1.38 | 0.8 | 0.712 | 0.807 | 1 | 0.691 | 1.53 | 0.671 | 1.25 | 1.32 | 0.975 | 1.04 | 1.33 | 0.655 | 0.715 | 0.502
GYQPDYGQPAG [SYP_Y278] | 0.701 | 0.442 | 0.378 | 0.465 | 0.551 | 0.38 | 0.671 | 0.384 | 0.409 | 0.564 | 0.334 | 0.556 | 0.342 | 0.657 | 0.702 | 0.52
GYQPEYGQPAG [SYP_Y278_D277E] | 0.662 | 0.451 | 0.451 | 0.401 | 0.659 | 0.487 | 0.851 | 0.426 | 0.419 | 0.725 | 0.467 | 0.466 | 0.443 | 0.801 | 0.553 | 0.495
HCFAAYFQQGD [GPI_Y351_R347C] | 1.72 | 1.05 | 0.906 | 0.914 | 1.28 | 1.08 | 2.51 | 0.755 | 0.748 | 2.05 | 1.03 | 1.98 | 1.23 | 0.984 | 0.929 | 0.673
HFGCVYRGTLL [MET_Y1093_H1094R] | 1.44 | 1.04 | 0.87 | 0.884 | 1.06 | 0.702 | 1.66 | 0.862 | 0.607 | 1.77 | 0.573 | 1.28 | 1.97 | 0.868 | 0.963 | 0.565
HKLSSYEFDFE [BTK_Y40_Y39S_YF] | 1.83 | 0.902 | 0.75 | 0.889 | 0.844 | 0.664 | 1.51 | 0.777 | 0.565 | 2.13 | 0.865 | 1.43 | 1.09 | 0.974 | 0.719 | 3
HLEKKYVRRDS [CSF1R_Y708] | 2.92 | 1.61 | 2.23 | 2.42 | 0.997 | 1.67 | 4.2 | 1.64 | 1.23 | 6.5 | 6.59 | 2.1 | 4.16 | 1.02 | 1.25 | 0.876
HLVLNYGVCFC [JAK2_Y613_V617F] | 2.91 | 1.67 | 2.33 | 1.2 | 1.77 | 0.982 | 2.32 | 1.11 | 1.04 | 1.53 | 0.575 | 1.29 | 0.914 | 0.884 | 1.15 | 0.757
HMRLRYLAAEE [CEP120_Y884_Q879H] | 1.22 | 0.587 | 0.552 | 0.412 | 0.939 | 0.75 | 1.89 | 0.722 | 0.53 | 1.03 | 0.452 | 1.3 | 0.659 | 1.14 | 1.39 | 1.18
HPYNSYTYPRL [PAK5_Y316_S312P] | 1.2 | 0.731 | 0.531 | 0.998 | 0.962 | 0.674 | 0.875 | 0.968 | 0.984 | 0.429 | 2.57 | 0.374 | 1.3 | 0.813 | 0.677 | 7.32
HQEPVYSVAFS [TBL1X_Y509] | 4.16 | 25.8 | 31.1 | 4.88 | 3.89 | 24.1 | 2.74 | 15.6 | 14.2 | 0.688 | 14.5 | 30.7 | 9.13 | 1.08 | 0.856 | 0.533
HQKKPYCHAHN [NRAP_Y53] | 1.82 | 1.08 | 0.8 | 0.983 | 2.09 | 1.85 | 1.62 | 0.828 | 1.05 | 3.5 | 0.623 | 2.3 | 0.591 | 1.64 | 1.79 | 1.29
HRGFLYLAIEY [TEK_Y899_Y897F] | 1.5 | 0.986 | 0.541 | 0.549 | 0.891 | 0.791 | 1.76 | 0.54 | 0.743 | 1.49 | 0.703 | 1.47 | 0.541 | 1.15 | 0.77 | 0.45
HRGSLYLAIEY [TEK_Y899_Y897S] | 1.87 | 0.819 | 0.776 | 0.581 | 1.3 | 0.853 | 2.15 | 0.58 | 0.798 | 2.2 | 0.834 | 2.14 | 0.734 | 0.646 | 0.501 | 0.375
HRNGMYGLHQD [SGSH_Y89_Q85R] | 0.515 | 0.39 | 0.51 | 0.485 | 0.421 | 0.432 | 0.428 | 0.49 | 0.294 | 0.626 | 0.396 | 0.502 | 0.389 | 0.939 | 0.751 | 0.631
HSFNSYTFPRL [PAK5_Y316_YF] | 1.78 | 0.802 | 0.629 | 0.59 | 0.958 | 0.489 | 1.74 | 0.407 | 0.525 | 1.31 | 0.55 | 0.849 | 0.374 | 0.699 | 0.494 | 0.481
HSFQCYGRNEA [ENTPD3_Y262] | 1.23 | 0.875 | 1.04 | 0.761 | 1.18 | 0.759 | 1.28 | 0.711 | 0.797 | 0.594 | 0.585 | 0.736 | 0.417 | 0.945 | 0.82 | 0.529
HSGIYYKPESL [L2HGDH_Y103] | 1.59 | 6.97 | 6.24 | 5.66 | 4.95 | 0.613 | 0.984 | 4.78 | 6.44 | 2.35 | 9.79 | 27.1 | 3.78 | 0.925 | 0.563 | 0.601
